Source: article PMC6820745, “Structural and thermodynamic basis for the recognition of the substrate-binding cleft on hen egg lysozyme by a single-domain antibody” (Scientific Reports, 2019)
Positions count from the first letter of the chain named.

Columns and labels:
hen egg lysozyme [1] = target: T1, hen egg lysozyme (hen, UniProt P00698 19-147); test: SPR; HEL immobilised on CM5 chip (200 RU), VHH flowed over, multi-cycle, 10 °C, PBS with 0.005% Tween 20, global fit to a 1:1 binding model; conditions: both partners purified
T1 construct: hen egg lysozyme (HEL), bought, used without further purification; also called HEL; source: bought: Wako Pure Chemical (Cat. No. 126-02671)
T1 sequence (P00698 19-147): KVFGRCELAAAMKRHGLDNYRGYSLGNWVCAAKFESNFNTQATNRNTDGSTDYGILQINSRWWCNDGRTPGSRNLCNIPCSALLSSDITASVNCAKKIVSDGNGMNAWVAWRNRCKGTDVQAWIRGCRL

hen egg lysozyme [2] = target: T1, hen egg lysozyme; test: ITC; iTC200, 25 °C, PBS; VHH (10 µM) in the cell titrated with HEL (100 µM); 1:1 binding model; two independent measurements; conditions: both partners purified
hen egg lysozyme [3] = target: T1, hen egg lysozyme; test: SPR; HEL immobilised on CM5 chip (200 RU), VHH flowed over, multi-cycle, 30 °C, PBS with 0.005% Tween 20, global fit to a 1:1 binding model; conditions: both partners purified
hen egg lysozyme [4] = target: T1, hen egg lysozyme; test: SPR; HEL immobilised on CM5 chip (200 RU), VHH flowed over, multi-cycle, 14 °C, PBS with 0.005% Tween 20, global fit to a 1:1 binding model; conditions: both partners purified
hen egg lysozyme [5] = target: T1, hen egg lysozyme; test: SPR; HEL immobilised on CM5 chip (200 RU), VHH flowed over, multi-cycle, 26 °C, PBS with 0.005% Tween 20, global fit to a 1:1 binding model; conditions: both partners purified
hen egg lysozyme [6] = target: T1, hen egg lysozyme; test: SPR; HEL immobilised on CM5 chip (200 RU), VHH flowed over, multi-cycle, 18 °C, PBS with 0.005% Tween 20, global fit to a 1:1 binding model; conditions: both partners purified
hen egg lysozyme [7] = target: T1, hen egg lysozyme; test: SPR; HEL immobilised on CM5 chip (200 RU), VHH flowed over, multi-cycle, 22 °C, PBS with 0.005% Tween 20, global fit to a 1:1 binding model; conditions: both partners purified
hen egg lysozyme [8] = target: T1, hen egg lysozyme; test: SPR; HEL immobilised on CM5 chip (200 RU), VHH flowed over, 10 °C, PBS with 0.005% Tween 20, steady-state responses (Scatchard plot), 1:1 binding model; conditions: both partners purified
hen egg lysozyme [9] = target: T1, hen egg lysozyme; test: SPR; HEL immobilised on CM5 chip (200 RU), VHH flowed over, 26 °C, PBS with 0.005% Tween 20, steady-state responses (Scatchard plot), 1:1 binding model; conditions: both partners purified
hen egg lysozyme [10] = target: T1, hen egg lysozyme; test: SPR; HEL immobilised on CM5 chip (200 RU), VHH flowed over, 30 °C, PBS with 0.005% Tween 20, steady-state responses (Scatchard plot), 1:1 binding model; conditions: both partners purified
hen egg lysozyme [11] = target: T1, hen egg lysozyme; test: SPR; HEL immobilised on CM5 chip (200 RU), VHH flowed over, 22 °C, PBS with 0.005% Tween 20, steady-state responses (Scatchard plot), 1:1 binding model; conditions: both partners purified
hen egg lysozyme [12] = target: T1, hen egg lysozyme; test: SPR; HEL immobilised on CM5 chip (200 RU), VHH flowed over, multi-cycle, 10 °C, PBS with 0.005% Tween 20, global fit to a 1:1 binding model; conditions: both partners purified; remark: listed apart in the source
hen egg lysozyme [13] = target: T1, hen egg lysozyme; test: SPR; HEL immobilised on CM5 chip (200 RU), VHH flowed over, 14 °C, PBS with 0.005% Tween 20, steady-state responses (Scatchard plot), 1:1 binding model; conditions: both partners purified
hen egg lysozyme [14] = target: T1, hen egg lysozyme; test: SPR; HEL immobilised on CM5 chip (200 RU), VHH flowed over, 18 °C, PBS with 0.005% Tween 20, steady-state responses (Scatchard plot), 1:1 binding model; conditions: both partners purified
hen egg lysozyme [15] = target: T1, hen egg lysozyme; test: SPR; HEL immobilised on CM5 chip (200 RU), VHH flowed over, multi-cycle, 22 °C, PBS with 0.005% Tween 20, global fit to a 1:1 binding model; conditions: both partners purified; remark: listed apart in the source
hen egg lysozyme [16] = target: T1, hen egg lysozyme; test: SPR; HEL immobilised on CM5 chip (200 RU), VHH flowed over, multi-cycle, 14 °C, PBS with 0.005% Tween 20, global fit to a 1:1 binding model; conditions: both partners purified; remark: listed apart in the source
hen egg lysozyme [17] = target: T1, hen egg lysozyme; test: SPR; HEL immobilised on CM5 chip (200 RU), VHH flowed over, multi-cycle, 18 °C, PBS with 0.005% Tween 20, global fit to a 1:1 binding model; conditions: both partners purified; remark: listed apart in the source
hen egg lysozyme [18] = target: T1, hen egg lysozyme; test: SPR; HEL immobilised on CM5 chip (200 RU), VHH flowed over, multi-cycle, 26 °C, PBS with 0.005% Tween 20, global fit to a 1:1 binding model; conditions: both partners purified; remark: listed apart in the source
hen egg lysozyme (hen) [19] = target: hen egg lysozyme (hen) (UniProt P00698); test: ITC; iTC200; 25 °C; PBS; VHH (10 uM) in the cell titrated with HEL (100 uM); 1:1 binding model
hen egg lysozyme (hen), sequence (P00698 19-147): as above

hen egg lysozyme (hen) [20] = target: hen egg lysozyme (hen) (UniProt P00698); test: SPR; as a1, but KD from the responses in equilibrium (Scatchard plot, 1:1 model); HEL immobilised; 25 °C; PBS with 0.005% Tween 20
hen egg lysozyme (hen) [21] = target: hen egg lysozyme (hen) (UniProt P00698); test: SPR; HEL immobilised; measured at several temperatures; van't Hoff analysis (non-linear regression); PBS with 0.005% Tween 20; KD given for 25 °C from the van't Hoff free energy
hen egg lysozyme (hen) [22] = target: hen egg lysozyme (hen) (UniProt P00698); test: SPR; Biacore T200; HEL immobilised on CM5 chip (200 RU); VHH flowed over; 25 °C; PBS with 0.005% Tween 20; global fit to a 1:1 binding model
hen egg lysozyme [23] = target: T2, hen egg lysozyme (Gallus gallus (hen), UniProt P00698); test: SPR; Biacore T200; HEL immobilised on CM5 chip (200 RU); VHH flowed over; 25 °C; PBS with 0.005% Tween 20; global fit to a 1:1 binding model; conditions: both partners purified
T2 construct: hen egg lysozyme (lysozyme C), bought from Wako Pure Chemical; also called HEL; source: bought: Wako Pure Chemical (Cat. No. 126-02671), used without further purification
T2 sequence (P00698 19-147): as above
How it was run: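 Binding of the His6-tagged single-domain antibody, expressed in E. coli BL21(DE3) and purified by Ni-NTA and size-exclusion chromatography, was measured by surface plasmon resonance on a Biacore T200 against hen egg lysozyme immobilised on a CM5 chip (200 RU). Runs were at 25 °C in PBS with 0.005% Tween 20, with 300 s contact, 600 s dissociation and regeneration in 1.0 M Arg-HCl pH 4.4. Antibody concentrations were adjusted per mutant. Kd, kon and koff came from global fitting to a 1:1 binding model in BiaEvaluation.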

hen egg lysozyme [24] = target: T2, hen egg lysozyme; test: SPR; HEL immobilised; measured at several temperatures; van't Hoff analysis (non-linear regression); PBS with 0.005% Tween 20; KD given for 25 °C from the van't Hoff free energy; conditions: both partners purified
hen egg lysozyme [25] = target: T2, hen egg lysozyme; test: ITC; iTC200; 25 °C; PBS; VHH (10 uM) in the cell titrated with HEL (100 uM); 1:1 binding model; conditions: both partners purified
hen egg lysozyme [26] = target: T2, hen egg lysozyme; test: SPR; as a1, but KD from the responses in equilibrium (Scatchard plot, 1:1 model); HEL immobilised; 25 °C; PBS with 0.005% Tween 20; conditions: both partners purified

B1: D3-L11 (wild type), VHH specific for hen egg lysozyme (VHH)
VHH: DVQLVESGGGSVQAGGSLRLSCAASGSTDSIEYMTWFRQAPGKAREGVAALYTHTGNTYYTDSVKGRFTISQDKAKNMAYLRMDSVKSEDTAIYTCGATRKYVPVRFALDQSSYDYWGQGTQVTVSS
notes: also called WT; WT antibody; source: E. coli BL21(DE3), purified (Ni-NTA, SEC)
Hen egg lysozyme [1]
  Kd: 0.0267 nM
  koff: 7.52e-05 s⁻¹
  kon: 2.81e+06 M⁻¹ s⁻¹
Hen egg lysozyme [2]
  Kd: 3.8 nM
  stoichiometry N: 0.88
Hen egg lysozyme [3]
  Kd: 0.177 nM
  koff: 0.0015 s⁻¹
  kon: 8.48e+06 M⁻¹ s⁻¹
Hen egg lysozyme [4]
  Kd: 0.0395 nM
  koff: 0.000139 s⁻¹
  kon: 3.52e+06 M⁻¹ s⁻¹
Hen egg lysozyme [5]
  Kd: 0.127 nM
  koff: 0.000847 s⁻¹
  kon: 6.81e+06 M⁻¹ s⁻¹
Hen egg lysozyme [6]
  Kd: 0.0549 nM
  koff: 0.000274 s⁻¹
  kon: 4.99e+06 M⁻¹ s⁻¹
Hen egg lysozyme [7]
  Kd: 0.0897 nM
  koff: 0.000492 s⁻¹
  kon: 5.48e+06 M⁻¹ s⁻¹

B2: D3-L11 Y52A (VHH)
VHH: B1 VHH with Y52A
notes: the substitution is still to be applied; source: E. coli BL21(DE3), purified (Ni-NTA, SEC)
Hen egg lysozyme [8]
  Kd: 60.5 ± 4.3 nM
Hen egg lysozyme [2]
  Kd: 1000 nM
  stoichiometry N: 0.93
Hen egg lysozyme [9]
  Kd: 119 ± 9 nM
Hen egg lysozyme [10]
  Kd: 142 ± 10 nM
Hen egg lysozyme [11]
  Kd: 99.2 ± 7.4 nM
Hen egg lysozyme [12]
  Kd: 21.2 nM
  koff: 0.037 s⁻¹
  kon: 1.74e+06 M⁻¹ s⁻¹
Hen egg lysozyme [13]
  Kd: 71.4 ± 5.3 nM
Hen egg lysozyme [14]
  Kd: 83.4 ± 6.5 nM
Hen egg lysozyme [15]
  Kd: 40.8 nM
  koff: 0.102 s⁻¹
  kon: 2.5e+06 M⁻¹ s⁻¹
Hen egg lysozyme [16]
  Kd: 26.5 nM
  koff: 0.0515 s⁻¹
  kon: 1.94e+06 M⁻¹ s⁻¹
Hen egg lysozyme [17]
  Kd: 33 nM
  koff: 0.0731 s⁻¹
  kon: 2.21e+06 M⁻¹ s⁻¹
Hen egg lysozyme [18]
  Kd: 52.9 nM
  koff: 0.144 s⁻¹
  kon: 2.72e+06 M⁻¹ s⁻¹

B3: D3-L11 Y102A (VHH)
VHH: B1 VHH with Y102A
notes: as for B2
Hen egg lysozyme [8]
  Kd: 303 ± 32 nM
Hen egg lysozyme [2]
  Kd: 1800 nM
  stoichiometry N: 1.23
Hen egg lysozyme (hen) [19]
  ddH against WT antibody (ITC): 4.8 kcal/mol
Hen egg lysozyme (hen) [20]
  Kd: 635 nM
Hen egg lysozyme [9]
  Kd: 658 ± 64 nM
Hen egg lysozyme [10]
  Kd: 867 ± 70 nM
Hen egg lysozyme [11]
  Kd: 529 ± 55 nM
Hen egg lysozyme [12]
  Kd: 100 nM
  koff: 0.116 s⁻¹
  kon: 1.15e+06 M⁻¹ s⁻¹
Hen egg lysozyme [13]
  Kd: 348 ± 42 nM
Hen egg lysozyme [14]
  Kd: 429 ± 48 nM
Hen egg lysozyme [15]
  Kd: 233 nM
  koff: 0.479 s⁻¹
  kon: 2.06e+06 M⁻¹ s⁻¹
Hen egg lysozyme (hen) [21]
  Kd: 413 nM
  dH (van't Hoff): -12 kcal/mol
Hen egg lysozyme [16]
  Kd: 146 nM
  koff: 0.201 s⁻¹
  kon: 1.38e+06 M⁻¹ s⁻¹
Hen egg lysozyme [17]
  Kd: 191 nM
  koff: 0.309 s⁻¹
  kon: 1.62e+06 M⁻¹ s⁻¹
Hen egg lysozyme (hen) [22]
  Kd: 295 nM
  koff: 0.686 s⁻¹
  kon: 2.32e+06 M⁻¹ s⁻¹
Hen egg lysozyme [18]
  Kd: 418 nM
  koff: 0.83 s⁻¹
  kon: 1.99e+06 M⁻¹ s⁻¹

B4: D3-L11 (VHH)
VHH: B1 VHH
notes: VHH D3-L11 specific for HEL; Synthetic gene in pRA2 with a pelB signal peptide at the N-terminus and a His6-tag at the C-terminus; also called WT; WT antibody; source: E. coli BL21(DE3), purified (Ni-NTA, SEC)
Hen egg lysozyme [23]
  Kd: 0.129 nM
  koff: 0.000785 s⁻¹
  kon: 6.1e+06 M⁻¹ s⁻¹
Hen egg lysozyme [24]
  dH (van't Hoff): -17 kcal/mol
Hen egg lysozyme [25]
  dH: -21.4 ± 0.6 kcal/mol

B5: D3-L11 H54A (VHH)
VHH: B1 VHH with H54A
notes: as the VHH chain of m2 with the stated change; source: E. coli BL21(DE3), purified (Ni-NTA, SEC)
Hen egg lysozyme [23]
  Kd: 2.65 nM
  koff: 0.00921 s⁻¹
  kon: 3.48e+06 M⁻¹ s⁻¹

B6: D3-L11 T55A (VHH)
VHH: B1 VHH with T55A
notes: as for B5
Hen egg lysozyme [23]
  Kd: 2.99 nM
  koff: 0.0113 s⁻¹
  kon: 3.77e+06 M⁻¹ s⁻¹

B7: D3-L11 K101A (VHH)
VHH: B1 VHH with K101A
notes: as for B5
Hen egg lysozyme [23]
  Kd: 0.0911 nM
  koff: 0.000687 s⁻¹
  kon: 7.54e+06 M⁻¹ s⁻¹

B8: D3-L11 P104A (VHH)
VHH: B1 VHH with P104A
notes: as for B5
Hen egg lysozyme [23]
  Kd: 13 nM
  koff: 0.226 s⁻¹
  kon: 1.74e+07 M⁻¹ s⁻¹
Hen egg lysozyme [26]
  Kd: 44.8 ± 19 nM

B9: D3-L11 R106A (VHH)
VHH: B1 VHH with R106A
notes: as for B5
Hen egg lysozyme [23]
  Kd: 1.65 nM
  koff: 0.00183 s⁻¹
  kon: 1.11e+06 M⁻¹ s⁻¹

B10: D3-L11 F107A (VHH)
VHH: B1 VHH with F107A
notes: as for B5
Hen egg lysozyme [23]
  Kd: 1.63 nM
  koff: 0.0147 s⁻¹
  kon: 8.99e+06 M⁻¹ s⁻¹

B11: D3-L11 S113A (VHH)
VHH: B1 VHH with S113A
notes: as for B5
Hen egg lysozyme [23]
  Kd: 1.61 nM
  koff: 0.00831 s⁻¹
  kon: 5.17e+06 M⁻¹ s⁻¹

B12: D3-L11 D115A (VHH)
VHH: B1 VHH with D115A
notes: as for B5
Hen egg lysozyme [23]
  Kd: 0.156 nM
  koff: 0.000956 s⁻¹
  kon: 6.11e+06 M⁻¹ s⁻¹

B13: D3-L11 E32A (VHH)
VHH: B1 VHH with E32A
notes: as for B5
Hen egg lysozyme [23]
  Kd: 1.87 nM
  koff: 0.012 s⁻¹
  kon: 6.43e+06 M⁻¹ s⁻¹
